Laboratory results as given in doi:10.1101/243014, “RNA-binding proteins with mixed charge domains self-assemble and aggregate in Alzheimer’s Disease” (bioRxiv, 2018).
Several values for one entry are separate records, joined by “and”; a condition that tells them apart may be missing. Identical values can stand only once.

B1: N-terminal domain (residues 1–99) of rU1-70K (domain or fragment, UniProt P08621 1-99, looked up)
chain: MTQFLPPNLLALFAPRDPIPYLPPLEKLPHEKHHNQPYCGIAPYIREFEDPRDAPPPTRAETREERMERKRREKIERRQQEVETELKMWDPHNDPNAQG
notes: U1-70K residues 1-99 (N-terminus); The GST carrier was kept in BN-PAGE (~65 kDa on SDS-PAGE); also called N-terminus (1–99 residues) alone; source: HEK293, transfected, in lysate
B2: LC1 domain (residues 231–308) of rU1-70K (domain or fragment, UniProt P08621 231-308, looked up)
chain: RDRDRDRERERRERSRERDKERERRRSRSRDRRRRSRSRDKEERRRSRERSKDKDRDRKRRSSRSRERARRERERKEE
notes: The GST carrier was kept in BN-PAGE (~65 kDa on SDS-PAGE); also called LC1 alone; mixed charge LC1 domain; source: HEK293, transfected, in lysate

Molecular target: the molecule itself
Assay: native gel or EMSA; blue native PAGE (3-12% NativePAGE Bis-Tris) of 0.8 ug purified protein in loading buffer with 50 mM TCEP, 30 min at room temperature; Coomassie and western blot with Myc antibodies

Row | Protein | stoichiometry N
1 | B1 | 2
2 | B2 | 2 and 3 and 4
